Laboratory results from publication PMC5167418, “A Novel Functional Domain of Tab2 Involved in the Interaction with Estrogen Receptor Alpha in Breast Cancer Cells” (PLoS ONE, 2016).
Values belong to the molecule of their own block, whether it stands above or below them.

Key:
Recombinant human ERα [1] = biological target: T1, Recombinant human ERα (human, UniProt P03372 1-595)
T1 construct: recombinant human ERα, bought; also called recombinant hERα; source: bought: Life Technologies
T1 sequence (looked up): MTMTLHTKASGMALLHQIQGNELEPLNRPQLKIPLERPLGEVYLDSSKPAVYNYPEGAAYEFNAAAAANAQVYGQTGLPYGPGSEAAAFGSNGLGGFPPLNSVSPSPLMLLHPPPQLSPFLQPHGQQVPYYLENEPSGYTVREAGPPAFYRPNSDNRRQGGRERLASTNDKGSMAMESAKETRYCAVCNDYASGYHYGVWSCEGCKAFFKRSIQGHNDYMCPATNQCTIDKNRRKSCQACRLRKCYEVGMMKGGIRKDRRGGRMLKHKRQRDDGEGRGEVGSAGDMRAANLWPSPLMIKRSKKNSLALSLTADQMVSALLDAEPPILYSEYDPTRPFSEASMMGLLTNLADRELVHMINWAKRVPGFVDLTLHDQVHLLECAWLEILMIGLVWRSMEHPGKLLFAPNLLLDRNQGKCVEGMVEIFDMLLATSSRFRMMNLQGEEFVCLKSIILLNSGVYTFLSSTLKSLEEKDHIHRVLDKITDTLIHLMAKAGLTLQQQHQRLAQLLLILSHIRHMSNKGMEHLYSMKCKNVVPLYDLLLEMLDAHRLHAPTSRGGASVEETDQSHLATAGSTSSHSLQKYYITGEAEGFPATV

Recombinant human ERα [2] = biological target: T1, Recombinant human ERα; assay: pull-down; competition: 10 μg MBP-Tab2(406–531) preincubated 1 h at 4°C with synthetic Tab2 peptides (10 μM each, or Tab2-pept3 100 nM to 10 μM), then recombinant hERα (1 nM) 1.5 h at 4°C, amylose resin, immunoblot; settings: both partners purified
Recombinant human ERα [3] = biological target: T1, Recombinant human ERα; assay: pull-down; competition screening: MBP-Tab2(406–531) and recombinant hERα (1 nM) with or without in vitro translated fragments of Tab2(406–531); the pair that is blocked; settings: both partners purified

proliferation (bromo-deoxyuridine incorporation) of MCF7 TamR cells in 1 μM 4OHT, peptide 1 to 100 μM, 24 h; the peptide is meant to interfere with Tab2/ERα (Recombinant human ERα [1]): 50 to 70 µM
Molecule: TAT-Tab2-pept3 (from UniProt Q9NYJ8 480-496) (peptide)

binding result (Recombinant human ERα [2]): binds
B1: Tab2-pept3 (peptide, UniProt Q9NYJ8 480-496, looked up)
peptide: VVSPTFELTNLLNHPDH
notes: 17-aa synthetic peptide mimicking aa; 480–496 of human Tab2, a portion of Fragment 4; includes the LTNLL motif; also called Tab2 mimic peptide; SRID peptide; source: synthetic peptide (microwave-assisted synthesis, RP-HPLC purified)

binding result (Recombinant human ERα [3]): binds
B2: MBP-Tab2(406–531) (domain or fragment, human, UniProt Q9NYJ8 406-531, looked up)
chain: TLFISTNSGASAASRNMSGQVSMGPAFIHHHPPKSRAIGNNSATSPRVVVTQPNTKYTFKITVSPNKPPAVSPGVVSPTFELTNLLNHPDHYVETENIQHLTDPTLAHVDRISETRKLSMGSDDAA
notes: human Tab2, aa 406–531 (central domain); also called MBP-406-531Tab2; 406-531Tab2; source: bacteria, purified MBP fusion (pMALc2)
